The values below come from PMC10338323.

The target in the assay is EvdS6 (Micromonospora carbonacea var. aurantiaca). Briefly: crystal structure; EvdS6 with copurified NAD+, ligand-free and TDP-bound states; hanging drop at about 25 °C; two protein chains in the asymmetric unit.

One may read the stoichiometry N as the number of molecules, sites or subunits per partner or assembly. With EvdS6 (enzyme), the stoichiometry N was 2.
